Measured values taken from the supplement of paper PMC7877785.
± gives the uncertainty stated by the source.

Test: self-splicing fitness, log relative to wild type (ln ratio); higher = more splicing; Tetrahymena group I intron in knt gene, E. coli kanamycin selection, DiMSum; sequences stand for … in CUCUCU…GGAGGGAAAAGUUAUCAGGCAUGCACCUGGUAGCUAGUCUUUAAACCAAUAGAUUGCAUCGGUUUAAAAGGCAAGACCGUCAAAUUGCGGGAAAGGGGUCAACAGCCGUUCAGUACCAAGUCUCAGGGGAAACUUUGAGAUGGCCUUGCAAAGGGUAUGGUAAUAAGCUGACGGACAUGGUCCUAACCACGCAGCCAAGUCCUAAGUCAACAGAUCUUCUGUUGAUAUGGAUGCAGUUCACAGACUAAAUGUCGGUCGGGGAAGAUGUAUUCUUCUCAUAAGAUAUAGUCGGACCUCUCCUUAAUGGGAGCUAGCGGAUGAAGUGAUGCAACACUGGAGCCGCUGGGAACUAAUUUGUAUGCGAAAGUAUAUUGAUUAGUUUUGGAGUACUCGUGGUCG
In short: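 Fitness was computed with DiMSum as the error-weighted combination of replicate fold changes, kanamycin versus none, each normalised to wild type. The library randomised all eight intron nucleotides of the P1ex region, with the intron placed in the knt kanamycin-resistance gene on pET-22b(+) in E. coli BL21(DE3). Six replicate transformations were grown overnight at 37°C or 30°C on LB agar with or without 25 μg/mL kanamycin, plus 100 μg/mL carbenicillin, 50 μM IPTG and 0.2% rhamnose. Pooled colonies were amplicon-sequenced on an Illumina HiSeq 2500.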

Sequence: UCGAAGCAAUAUUACGAAUG
- self-splicing fitness (ln) (30 °C): -2.95 ± 0.17
- self-splicing fitness (ln) (37 °C): -1.84 ± 0.19

Sequence: UCGAAGCAAUAUUACGAUUC
- self-splicing fitness (ln) (30 °C): -4.04 ± 0.39
- self-splicing fitness (ln) (37 °C): -1.74 ± 0.26

Sequence: UCGAAGCAAUAUUACGCAAA
- self-splicing fitness (ln) (37 °C): -3.16 ± 0.4

Sequence: UCGAAGCAAUAUUACGCCCC
- self-splicing fitness (ln) (30 °C): -1.87 ± 0.44

Sequence: UCGAAGCAAUAUUACGCGAA
- self-splicing fitness (ln) (30 °C): -2.42 ± 0.17
- self-splicing fitness (ln) (37 °C): -0.19 ± 0.13

Sequence: UCGAAGCAAUAUUACGCGCA
- self-splicing fitness (ln) (30 °C): 0.425 ± 0.26
- self-splicing fitness (ln) (37 °C): -0.635 ± 0.21

Sequence: UCGAAGCAAUAUUACGCGGU
- self-splicing fitness (ln) (30 °C): -2.73 ± 0.3
- self-splicing fitness (ln) (37 °C): -2.48 ± 0.36

Sequence: UCGAAGCAAUAUUACGCGUG
- self-splicing fitness (ln) (30 °C): -0.488 ± 0.07
- self-splicing fitness (ln) (37 °C): -0.256 ± 0.078

Sequence: UCGAAGCAAUAUUACGCUAA
- self-splicing fitness (ln) (37 °C): -2.07 ± 0.36

Sequence: UCGAAGCAAUAUUACGCUCG
- self-splicing fitness (ln) (30 °C): -2.53 ± 0.31
- self-splicing fitness (ln) (37 °C): -1.39 ± 0.27

Sequence: UCGAAGCAAUAUUACGGCCA
- self-splicing fitness (ln) (30 °C): -1.64 ± 0.16
- self-splicing fitness (ln) (37 °C): 0.195 ± 0.14

Sequence: UCGAAGCAAUAUUACGGGCC
- self-splicing fitness (ln) (30 °C): -2.98 ± 0.38
- self-splicing fitness (ln) (37 °C): -0.79 ± 0.33

Sequence: UCGAAGCAAUAUUACGGUCG
- self-splicing fitness (ln) (30 °C): -0.668 ± 0.079
- self-splicing fitness (ln) (37 °C): 0.0856 ± 0.11

Sequence: UCGAAGCAAUAUUACGGUUC
- self-splicing fitness (ln) (30 °C): -4.34 ± 0.34
- self-splicing fitness (ln) (37 °C): -2.79 ± 0.32

Sequence: UCGAAGCAAUAUUACGUAAG
- self-splicing fitness (ln) (30 °C): -1.85 ± 0.13
- self-splicing fitness (ln) (37 °C): -0.0359 ± 0.13

Sequence: UCGAAGCAAUAUUACGUACA
- self-splicing fitness (ln) (30 °C): -0.691 ± 0.13
- self-splicing fitness (ln) (37 °C): 0.0696 ± 0.11

Sequence: UCGAAGCAAUAUUACGUAUG
- self-splicing fitness (ln) (30 °C): -2.78 ± 0.16
- self-splicing fitness (ln) (37 °C): -1.33 ± 0.15

Sequence: UCGAAGCAAUAUUACGUCCU
- self-splicing fitness (ln) (30 °C): -0.664 ± 0.12
- self-splicing fitness (ln) (37 °C): -0.253 ± 0.15

Sequence: UCGAAGCAAUAUUACGUGAC
- self-splicing fitness (ln) (30 °C): -2.44 ± 0.19
- self-splicing fitness (ln) (37 °C): -2.88 ± 0.21

Sequence: UCGAAGCAAUAUUACGUUAA
- self-splicing fitness (ln) (30 °C): -2.99 ± 0.19
- self-splicing fitness (ln) (37 °C): -0.482 ± 0.14

Sequence: UCGAAGCAAUAUUACGUUUA
- self-splicing fitness (ln) (30 °C): -3.07 ± 0.45
- self-splicing fitness (ln) (37 °C): -0.87 ± 0.29

Sequence: UCGCAGCAAUAUUACGAACC
- self-splicing fitness (ln) (30 °C): -3.4 ± 0.4
- self-splicing fitness (ln) (37 °C): -2.44 ± 0.41

Sequence: UCGCAGCAAUAUUACGACCG
- self-splicing fitness (ln) (30 °C): -0.544 ± 0.11
- self-splicing fitness (ln) (37 °C): -0.235 ± 0.15

Sequence: UCGCAGCAAUAUUACGACUC
- self-splicing fitness (ln) (30 °C): -3.5 ± 0.27
- self-splicing fitness (ln) (37 °C): -2.32 ± 0.27

Sequence: UCGCAGCAAUAUUACGAGAG
- self-splicing fitness (ln) (30 °C): -4.55 ± 0.36
- self-splicing fitness (ln) (37 °C): -2.39 ± 0.18

Sequence: UCGCAGCAAUAUUACGCACG
- self-splicing fitness (ln) (30 °C): -2.26 ± 0.16
- self-splicing fitness (ln) (37 °C): -0.255 ± 0.15

Sequence: UCGCAGCAAUAUUACGGAUG
- self-splicing fitness (ln) (30 °C): -1.44 ± 0.13
- self-splicing fitness (ln) (37 °C): -2.55 ± 0.16

Sequence: UCGCAGCAAUAUUACGGAUU
- self-splicing fitness (ln) (30 °C): -3.46 ± 0.17
- self-splicing fitness (ln) (37 °C): -2.51 ± 0.18

Sequence: UCGCAGCAAUAUUACGGCGA
- self-splicing fitness (ln) (30 °C): -3.35 ± 0.13
- self-splicing fitness (ln) (37 °C): -3 ± 0.17

Sequence: UCGCAGCAAUAUUACGGCGU
- self-splicing fitness (ln) (30 °C): -2.06 ± 0.16
- self-splicing fitness (ln) (37 °C): 0.251 ± 0.11

Sequence: UCGCAGCAAUAUUACGGUAC
- self-splicing fitness (ln) (37 °C): -2.21 ± 0.31

Sequence: UCGCAGCAAUAUUACGUAUC
- self-splicing fitness (ln) (30 °C): -3.82 ± 0.37
- self-splicing fitness (ln) (37 °C): -2.15 ± 0.27

Sequence: UCGCAGCAAUAUUACGUCAA
- self-splicing fitness (ln) (30 °C): -2.69 ± 0.15
- self-splicing fitness (ln) (37 °C): -0.094 ± 0.11

Sequence: UCGCAGCAAUAUUACGUCGC
- self-splicing fitness (ln) (30 °C): -3.2 ± 0.37

Sequence: UCGCAGCAAUAUUACGUCGG
- self-splicing fitness (ln) (30 °C): -2.74 ± 0.18
- self-splicing fitness (ln) (37 °C): -1.79 ± 0.19

Sequence: UCGCAGCAAUAUUACGUCUA
- self-splicing fitness (ln) (30 °C): -0.18 ± 0.11
- self-splicing fitness (ln) (37 °C): 0.716 ± 0.12

Sequence: UCGCAGCAAUAUUACGUGGA
- self-splicing fitness (ln) (30 °C): -1.93 ± 0.11
- self-splicing fitness (ln) (37 °C): -1.57 ± 0.084

Sequence: UCGCAGCAAUAUUACGUGUA
- self-splicing fitness (ln) (30 °C): -1.19 ± 0.082
- self-splicing fitness (ln) (37 °C): -0.901 ± 0.083

Sequence: UCGCAGCAAUAUUACGUUUU
- self-splicing fitness (ln) (30 °C): -4.52 ± 0.36
- self-splicing fitness (ln) (37 °C): -2.9 ± 0.23
